The test has as its target T1, full-length mFLT3 (Mus musculus, UniProt Q00342).
T1 construct: host or cells: HEK293T
T1 sequence (Q00342 28-1000): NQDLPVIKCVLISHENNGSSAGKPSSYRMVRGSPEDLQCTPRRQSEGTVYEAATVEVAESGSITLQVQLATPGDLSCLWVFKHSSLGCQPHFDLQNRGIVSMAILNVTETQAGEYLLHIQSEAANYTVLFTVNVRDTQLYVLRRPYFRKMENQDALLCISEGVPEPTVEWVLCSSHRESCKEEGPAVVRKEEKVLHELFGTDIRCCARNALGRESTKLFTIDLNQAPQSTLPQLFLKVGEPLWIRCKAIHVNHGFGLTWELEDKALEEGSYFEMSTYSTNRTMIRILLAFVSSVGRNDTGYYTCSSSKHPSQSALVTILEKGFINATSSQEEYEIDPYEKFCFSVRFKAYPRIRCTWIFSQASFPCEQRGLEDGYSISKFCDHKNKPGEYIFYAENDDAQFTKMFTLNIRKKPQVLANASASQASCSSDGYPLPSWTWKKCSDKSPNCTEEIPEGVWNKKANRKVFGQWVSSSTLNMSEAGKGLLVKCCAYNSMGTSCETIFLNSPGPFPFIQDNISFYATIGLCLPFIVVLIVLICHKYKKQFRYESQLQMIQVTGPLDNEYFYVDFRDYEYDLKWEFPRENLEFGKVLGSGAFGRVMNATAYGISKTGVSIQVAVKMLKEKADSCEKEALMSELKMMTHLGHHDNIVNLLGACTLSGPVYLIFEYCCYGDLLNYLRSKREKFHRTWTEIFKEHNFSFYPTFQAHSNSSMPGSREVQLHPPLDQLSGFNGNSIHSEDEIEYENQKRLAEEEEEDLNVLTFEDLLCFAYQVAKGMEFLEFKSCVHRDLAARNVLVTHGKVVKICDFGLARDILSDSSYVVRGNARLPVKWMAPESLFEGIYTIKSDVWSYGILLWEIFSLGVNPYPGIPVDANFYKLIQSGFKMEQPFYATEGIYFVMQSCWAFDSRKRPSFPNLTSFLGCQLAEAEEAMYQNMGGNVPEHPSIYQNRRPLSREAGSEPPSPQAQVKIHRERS
The test is described as follows: TR-FRET displacement of Red-FL binding, HEK cells expressing full-length mFLT3. Conditions: HEK cells expressing full-length mFLT3, 0.5 nM Red-FL. The method, then:
The binding of the A3 antibody to full-length hFLT3 and mFLT3 was measured by displacement of extracellular FL binding on recombinant HEK cells by using time-resolved fluorescence resonance energy transfer (TR-FRET).
Chemicals and reagents. The Tag-lite® labeling medium was from Cisbio Bioassays (Condolet, France). The Lumi4-Tb derivative of O6-Benzylguanine was synthesized by Cisbio Bioassays and is commercialized as SNAP-Lumi4-Tb (Cisbio Bioassays, Ref. SSNPTBE).
A recombinant rh-FLT3-L was produced as previously reported (Verstraete K, et al. Efficient production of bioactive recombinant human Flt3 ligand in E. coli. Protein J, 2009 28: 57-65) and labeled with a red fluorescent probe (Red-FL). Poly-L-ornithine (MW of 30,000-70,000 daltons) was from Sigma-Aldrich. The plasmids encoding for the SNAP tagged human FLT3 (pSNAP-hFLT3) or the mouse FLT3 (pSNAP-mFLT3) used for transient transfection was obtained from Cisbio Bioassays. Monoclonal antibodies against FLT3 (8F2) and phosphotyrosine FLT3 (PY969) were purchased from Cell Signaling Technology and labeled with Lumi4-Tb and d2 respectively, by Cisbio.
Cell culture. HEK293T cells, used for binding assays, were maintained in DMEM Glutamax (Invitrogen) supplemented with antibiotics (penicillin 50 U/ml, streptomycin 50 μg/ml) and 10% heat-inactivated Fetal Calf Serum.
Transfection procedures. […]

B1: A3 antibody: human monoclonal antibody against FLT3; VH SEQ ID NO:1, VL SEQ ID NO:2 (antibody, V domains shown)
VH: EVQLVESGGSLVKPGGSLRLSCAASGFTFSNSYMNWVRQAPGKGLEWISDISGSSRDIDYADFVKGRFTISRDNATNSLYLQMNSLRAEDTAVYYCVRSGNSGMDVWGRGTLVTVSS
VL: QSVLTQPASVSGSPGQSITISCAGTSSDVGGGYYVSWYQQHPGKAPKLMIYYDSYRPSGVSNRFSGSKSGNTASLTISGLQAEDEADYYCSSYTNNSTRVFGGGTKLEIK
modifications: Synthetic VH domain of A3; Synthetic VL region of A3
In the case of B1, the “IC50, displacement of FL binding” value is “about 17 μg/ml”.

The values above are taken from patent US10781452B2, “FLT3 receptor antagonists for the treatment or the prevention of pain disorders” (INSTITUT NATIONAL DE LA SANTE ET DE LA RECHERCHE MEDICALE …, priority 2010, dated 2020).
